According to patent US20040002593A1 (BURNHAM INSTITUTE, published 2004):

T1: ASC-CARD in pGilda (human, UniProt Q9ULZ3 107-195)
T1 construct: domain: CARD; Yeast two-hybrid construct; also called CARD domain of ASC
T1 sequence (looked up): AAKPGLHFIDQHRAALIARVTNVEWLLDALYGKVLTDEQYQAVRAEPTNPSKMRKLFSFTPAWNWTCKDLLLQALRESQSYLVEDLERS


Assays:
ASC in pGilda = molecular target: T2, ASC in pGilda (human, UniProt Q9ULZ3 1-195); assay: yeast two-hybrid, Leu read-out
T2 construct: Yeast two-hybrid construct
Method: (§1) Colonies were plated on both LEU+ and LEU− media and also used for a β-Gal-assay.

ASC-CARD in pGilda = molecular target: T1, ASC-CARD in pGilda; assay: yeast two-hybrid, β-Gal read-out
Method: as §1

Row | binding result (ASC in pGilda) | binding result (ASC-CARD in pGilda) | Binder | TNFα-induced activation of endogenous IKKα (in vitro kinase assay, phosphorylation of GST-IKBα substrate by immunoprecipitated IKKα) (Myc-ASC-PAAD)
1 | – | – | endogenous IKKα (protein) MERPPGLRPGAGGPWEMRERLGTGGFGNVCLYQHRELDLKIAIKSCRLELSTKNRERWCHEIQIMKKLNHANVVKACDVPEELNILIHDVPLLAMEYCSGGDLRKLLNKPENCCGLKESQILSLLSDIGSGIRYLHENKIIHRDLKPENIVLQDVGGKIIHKIIDLGYAKDVDQGSLCTSFVGTLQYLAPELFENKPYTATVDYWSFGTMVFECIAGYRPFLHHLQPFTWHEKIKKKDPKCIFACEEMSGEVRFSSHLPQPNSLCSLVVEPMENWLQLMLNWDPQQRGGPVDLTLKQPRCFVLMDHILNLKIVHILNMTSAKIISFLLPPDESLHSLQSRIERETGINTGSQELLSETGISLDPRKPASQCVLDGVRGCDSYMVYLFDKSKTVYEGPFASRSLSDCVNYIVQDSKIQLPIIQLRKVWAEAVHYVSGLKEDYSRLFQGQRAAMLSLLRYNANLTKMKNTLISASQQLKAKLEFFHKSIQLDLERYSEQMTYGISSEKMLKAWKEMEEKAIHYAEVGVIGYLEDQIMSLHAEIMELQKSPYGRRQGDLMESLEQRAIDLYKQLKHRPSDHSYSDSTEMVKIIVHTVQSQDRVLKELFGHLSKLLGCKQKIIDLLPKVEVALSNIKEADNTVMFMQGKRQKEIWHLLKIACTQSSARSLVGSSLEGAVTPQTSAWLPPTSAEHDHSLSCVVTPQDGETSAQMIEENLNCLGHLSTIIHEANEEQGNSMMNLDWSWLTE | ASC-PAAD potently suppressed TNFα-induced activation of endogenous IKKα in these cells
2 | binds | binds | ASC-CARD in pJG 4-5 (other, human, UniProt Q9ULZ3 107-195, looked up, not shown: large carriers, domain: CARD; Yeast two-hybrid construct; also called CARD domain of ASC) AAKPGLHFIDQHRAALIARVTNVEWLLDALYGKVLTDEQYQAVRAEPTNPSKMRKLFSFTPAWNWTCKDLLLQALRESQSYLVEDLERS | –
